Values belong to the binder of their own block, whether it stands above or below them.
B1: N-terminal domain mutant protein of KaiC, residues 1 to 268 (KaiCN) (domain or fragment, UniProt Q79V60 1-268, looked up)
chain: MTNLPEHQSSPTEQSSAEVKKIPTMIEGFDDISHGGLPQGRTTLVSGTSGTGKTLFAVQFLYNGITIFNEPGIFVTFEESPQDIIKNALSFGWNLQSLIDQGKLFILDASPDPDGQEVAGDFDLSALIERIQYAIRKYKATRVSIDSVTAVFQQYDAASVVRREIFRLAFRLKQLGVTTIMTTERVDEYGPVARFGVEEFVSDNVVILRNVLEGERRRRTVEILKLRGTTHMKGEYPFTINNGINIFPLGAMRLTQRSSNVRVSSGVK
notes: KaiC, Thermosynechococcus elongatus BP-1, N-terminal domain, residues 1-268; Used as monomer (no ATP) and as hexamer (with ATP or Mg-ATP); the assay tells which; also called KaiCN^1mer; KaiCN^6mer
B3: KaiC_(S431D&T432D) (KaiCDD) (natural protein, UniProt Q79V60 1-518, looked up)
chain: MTNLPEHQSSPTEQSSAEVKKIPTMIEGFDDISHGGLPQGRTTLVSGTSGTGKTLFAVQFLYNGITIFNEPGIFVTFEESPQDIIKNALSFGWNLQSLIDQGKLFILDASPDPDGQEVAGDFDLSALIERIQYAIRKYKATRVSIDSVTAVFQQYDAASVVRREIFRLAFRLKQLGVTTIMTTERVDEYGPVARFGVEEFVSDNVVILRNVLEGERRRRTVEILKLRGTTHMKGEYPFTINNGINIFPLGAMRLTQRSSNVRVSSGVKTLDEMCGGGFFKDSIILATGATGTGKTLLVSKFLETGCQQGERALLFAYEESRAQLSRNASSWGIDFEELERRGLLRIICAYPESAGLEDHLQIIKSEIADFKPSRVAIDSLSALARGVSNNAFRQFVIGVTGFAKQEEITGFFTNTTDQFMGSNSITESHIDDITDTILLLQYVEIRGEMSRAINVFKMRGSWHDKGIREYVITEKGAEIRDSFRNFEGIISGTPTRISVDEKTELARIAKGMQDLESE
notes: KaiC, Thermosynechococcus elongatus BP-1, subunit of 518 amino acid residues, aspartate at the two phosphorylation sites; Used as monomer (KaiC^1mer, no ATP) and as hexamer (KaiC^6mer; with Mg-ATP, ATP, Mg-AMPPNP, Mg-ATPγS or Mg-ADP-AlFx); the assay tells which; also called KaiCDD^1mer; KaiCDD^6mer

Assays:
[1] = target: the molecule itself; assay: native gel or EMSA; 5 μM monomeric KaiC incubated with 1 mM ATP with or without 5 mM MgCl2 at 4 °C; monomer to hexamer
[2] = target: B3; assay: native gel or EMSA; KaiBWT (1 μM) or KaiB1-94 (2 μM) with 1 μM KaiCDD hexamer in reaction buffer (20 mM HEPES-NaOH pH 7.5, 150 mM NaCl) with Mg-ATP at 40 °C, time course; 10 % native gel, CBB, densitometry; settings: both partners purified
[3] = target: T1, wild-type KaiC (KaiCWT) (Thermosynechococcus elongatus BP-1 …, UniProt Q79V60 1-518, phosphorylation level of the KaiCWT preparations about 30 % (phosphorylation sites Ser431 and Thr432)); assay: native gel or EMSA; KaiC hexamer (formed with Mg-ATP, 1 μM) with 5 μM KaiB1-94 in the presence of Mg-ATP at 4 °C; native PAGE, complex bands checked by second-dimension SDS-PAGE; settings: both partners purified
T1 construct: KaiC, Thermosynechococcus elongatus BP-1, wild type, subunit of 518 amino acid residues; Used as hexamer formed with Mg-ATP; also called KaiCWT^6mer
T1 sequence (looked up): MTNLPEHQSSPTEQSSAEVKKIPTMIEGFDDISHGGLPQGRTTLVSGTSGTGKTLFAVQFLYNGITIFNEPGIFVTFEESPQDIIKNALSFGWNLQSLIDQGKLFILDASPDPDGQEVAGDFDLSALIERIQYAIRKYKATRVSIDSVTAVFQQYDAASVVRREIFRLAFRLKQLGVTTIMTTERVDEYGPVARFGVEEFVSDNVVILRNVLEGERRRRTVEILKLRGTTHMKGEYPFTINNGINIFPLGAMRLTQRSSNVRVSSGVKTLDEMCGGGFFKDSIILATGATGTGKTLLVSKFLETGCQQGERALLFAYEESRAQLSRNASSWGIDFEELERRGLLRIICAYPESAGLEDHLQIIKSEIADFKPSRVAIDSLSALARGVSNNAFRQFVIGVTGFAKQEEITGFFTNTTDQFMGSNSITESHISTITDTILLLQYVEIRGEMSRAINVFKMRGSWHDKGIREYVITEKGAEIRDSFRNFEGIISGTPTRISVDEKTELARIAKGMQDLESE

[4] = target: T2, KaiC_(K294H) (Thermosynechococcus elongatus BP-1 …, UniProt Q79V60 1-518, K294H); assay: as above; settings: both partners purified
T2 construct: KaiC, Thermosynechococcus elongatus BP-1, 518 residues, K294H in Walker's motif A of the C-terminal domain; Used as hexamer formed with Mg-ATP; also called KaiC_(K294H)^6mer
T2 sequence (looked up): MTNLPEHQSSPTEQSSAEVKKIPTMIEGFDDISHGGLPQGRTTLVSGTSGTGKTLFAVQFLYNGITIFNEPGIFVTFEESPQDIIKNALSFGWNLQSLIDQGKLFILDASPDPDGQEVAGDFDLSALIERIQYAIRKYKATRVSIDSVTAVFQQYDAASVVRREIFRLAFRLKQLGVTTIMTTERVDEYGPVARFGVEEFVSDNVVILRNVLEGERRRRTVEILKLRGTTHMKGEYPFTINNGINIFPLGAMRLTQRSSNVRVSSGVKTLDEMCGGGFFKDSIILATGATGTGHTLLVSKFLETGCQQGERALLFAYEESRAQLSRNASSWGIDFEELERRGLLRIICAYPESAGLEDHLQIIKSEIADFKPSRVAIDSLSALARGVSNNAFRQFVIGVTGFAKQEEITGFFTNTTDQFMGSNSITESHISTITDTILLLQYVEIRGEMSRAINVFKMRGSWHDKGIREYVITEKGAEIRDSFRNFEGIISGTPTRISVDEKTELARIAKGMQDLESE

[5] = target: T3, KaiC_(K294H/DD) (Thermosynechococcus elongatus BP-1 …, UniProt Q79V60 1-518, K294H | S431D | T432D); assay: native gel or EMSA; monomeric KaiC (5 μM; 1 μM for the concentration series) with KaiB1-94 or 7.5 μM KaiBWT in reaction buffer without ATP, 4 °C, 6 h (KaiC_(C/DD) also at 25 °C); 10 % native gel, CBB, densitometry; settings: both partners purified
T3 construct: KaiC, Thermosynechococcus elongatus BP-1, 518 residues, K294H in Walker's motif A (C-terminal ATPase motif mutation by the results) plus the DD mutation; Used as monomer (no ATP) and as hexamer (with Mg-ATP); the assay tells which; also called KaiC_(K294H/DD)^1mer; KaiC_(K294H/DD)^6mer
T3 sequence (looked up): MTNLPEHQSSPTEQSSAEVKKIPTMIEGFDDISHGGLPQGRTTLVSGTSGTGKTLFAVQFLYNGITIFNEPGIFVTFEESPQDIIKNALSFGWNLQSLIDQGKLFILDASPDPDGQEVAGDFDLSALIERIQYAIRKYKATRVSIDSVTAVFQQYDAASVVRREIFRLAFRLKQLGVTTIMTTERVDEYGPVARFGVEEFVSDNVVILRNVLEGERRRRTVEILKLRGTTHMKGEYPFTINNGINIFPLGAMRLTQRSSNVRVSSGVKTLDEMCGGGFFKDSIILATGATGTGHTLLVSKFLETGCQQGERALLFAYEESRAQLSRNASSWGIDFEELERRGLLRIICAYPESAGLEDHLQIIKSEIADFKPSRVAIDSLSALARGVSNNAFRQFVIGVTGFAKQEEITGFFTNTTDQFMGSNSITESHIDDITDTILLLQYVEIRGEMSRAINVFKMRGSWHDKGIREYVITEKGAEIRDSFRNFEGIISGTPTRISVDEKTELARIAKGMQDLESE

[6] = target: T4, KaiC_(K53H/DD) (Thermosynechococcus elongatus BP-1 …, UniProt Q79V60 1-518, K53H | S431D | T432D); assay: as above; settings: both partners purified
T4 construct: KaiC, Thermosynechococcus elongatus BP-1, 518 residues, K53H in the N-terminal Walker's motif A plus the DD mutation; Used as monomer (no ATP) and as hexamer (with Mg-ATP); the assay tells which; also called KaiC_(K53H/DD)^1mer; KaiC_(K53H/DD)^6mer
T4 sequence (looked up): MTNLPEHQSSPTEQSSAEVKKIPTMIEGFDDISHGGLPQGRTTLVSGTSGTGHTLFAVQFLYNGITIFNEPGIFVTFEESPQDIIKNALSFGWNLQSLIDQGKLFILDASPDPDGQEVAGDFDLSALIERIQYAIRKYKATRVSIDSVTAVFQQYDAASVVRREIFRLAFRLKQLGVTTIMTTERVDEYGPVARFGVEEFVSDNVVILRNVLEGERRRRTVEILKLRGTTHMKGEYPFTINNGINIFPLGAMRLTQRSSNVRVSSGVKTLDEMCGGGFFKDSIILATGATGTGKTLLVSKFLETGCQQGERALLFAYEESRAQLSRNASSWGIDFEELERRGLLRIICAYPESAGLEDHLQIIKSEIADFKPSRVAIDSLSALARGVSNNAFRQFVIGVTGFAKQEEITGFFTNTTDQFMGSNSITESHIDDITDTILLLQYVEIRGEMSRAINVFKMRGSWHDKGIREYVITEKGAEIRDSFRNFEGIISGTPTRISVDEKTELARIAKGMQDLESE

[7] = target: B1; assay: as above; settings: both partners purified
[8] = target: B3; assay: as above; settings: both partners purified

Binder: B1
stoichiometry N [1]: 6

Binder: B3
stoichiometry N [1]: 6

Further lines, results first:

binding result [2]: binds
B2: wild-type KaiB (KaiBWT) (natural protein, UniProt Q79V61 1-108, looked up)
chain: MAPLRKTYVLKLYVAGNTPNSVRALKTLNNILEKEFKGVYALKVIDVLKNPQLAEEDKILATPTLAKVLPPPVRRIIGDLSNREKVLIGLDLLYEEIGDQAEDDLGLE
notes: KaiB, Thermosynechococcus elongatus BP-1, wild type, subunit of 108 amino acid residues; also called KaiBWT^4mer; KaiB^4mer

binding result [3]: binds
binding result [4]: binds
t1/2 of complex formation [2]: 1.2 h
binding result [5]: binds
binding result [6]: binds
binding result [7]: binds
EC50 [8]: ~700 nM
t1/2 of complex formation [8]: ~2.5 h
B4: mutant KaiB with a C-terminal deletion of residues 95 to 108 (KaiB1-94) (domain or fragment, UniProt Q79V61 1-94, looked up)
chain: MAPLRKTYVLKLYVAGNTPNSVRALKTLNNILEKEFKGVYALKVIDVLKNPQLAEEDKILATPTLAKVLPPPVRRIIGDLSNREKVLIGLDLLY
notes: KaiB, Thermosynechococcus elongatus BP-1, residues 1-94 (C-terminal residues 95-108 deleted)

From article PMC3823767, “The ATP-Mediated Regulation of KaiB-KaiC Interaction in the Cyanobacterial Circadian Clock” (PLoS ONE, 2013)
